Literature values as cited in paper PMC7589189.
pKd: −log10 of the molar value. Like-named read-outs stand apart in the source and are kept apart here. Each block holds one substance with its values, some of them ahead of it.

Legend:
ActRIIA (Homo sapiens) = ActRIIA (Homo sapiens) (UniProt P27037)
ALK1-Fc (Homo sapiens) = ALK1-Fc (Homo sapiens) (UniProt P37023); test: SPR
TβRII (Homo sapiens) [1] = molecular target: TβRII (Homo sapiens) (UniProt P37173)
TβRII (Homo sapiens) [2] = molecular target: TβRII (Homo sapiens) (UniProt P37173); remark: listed apart in the source
TβRII (Homo sapiens) [3] = molecular target: TβRII (Homo sapiens) (UniProt P37173); remark: listed apart in the source

TβRII (Homo sapiens), sequence (P37173 23-166): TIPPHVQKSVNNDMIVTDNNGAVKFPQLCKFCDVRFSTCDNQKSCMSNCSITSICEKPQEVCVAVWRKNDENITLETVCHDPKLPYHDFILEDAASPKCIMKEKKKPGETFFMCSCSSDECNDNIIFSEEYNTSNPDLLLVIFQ
ALK1-Fc (Homo sapiens), sequence (P37023 22-118): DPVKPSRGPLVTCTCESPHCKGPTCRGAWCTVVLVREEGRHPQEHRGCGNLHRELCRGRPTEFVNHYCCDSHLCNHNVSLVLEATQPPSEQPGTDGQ
TGF-β2, sequence (P61812 303-414): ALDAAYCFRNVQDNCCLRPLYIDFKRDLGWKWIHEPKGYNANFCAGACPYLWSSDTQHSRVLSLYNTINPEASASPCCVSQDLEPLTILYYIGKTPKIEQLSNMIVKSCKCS
BMP-7, sequence (P18075 293-431): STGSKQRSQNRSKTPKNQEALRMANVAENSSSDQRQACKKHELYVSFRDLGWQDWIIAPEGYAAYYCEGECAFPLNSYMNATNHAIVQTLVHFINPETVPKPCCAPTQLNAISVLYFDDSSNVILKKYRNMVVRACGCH
TGF-β3, sequence (P10600 301-412): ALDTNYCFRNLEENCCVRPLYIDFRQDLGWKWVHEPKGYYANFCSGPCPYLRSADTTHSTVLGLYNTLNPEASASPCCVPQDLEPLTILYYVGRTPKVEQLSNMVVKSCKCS
TGF-β1, sequence (P01137 279-390): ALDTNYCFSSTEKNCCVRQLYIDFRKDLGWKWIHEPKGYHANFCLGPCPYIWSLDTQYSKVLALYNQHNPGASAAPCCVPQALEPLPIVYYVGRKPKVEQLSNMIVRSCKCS
BMP-9, sequence (Q9UK05 320-429): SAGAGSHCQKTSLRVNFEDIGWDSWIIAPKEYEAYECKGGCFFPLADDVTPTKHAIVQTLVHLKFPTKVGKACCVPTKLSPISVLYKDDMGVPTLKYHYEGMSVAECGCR
pro-BMP-9, sequence (Q9UK05 320-429): as above
ActRIIA (Homo sapiens), sequence (P27037 20-135): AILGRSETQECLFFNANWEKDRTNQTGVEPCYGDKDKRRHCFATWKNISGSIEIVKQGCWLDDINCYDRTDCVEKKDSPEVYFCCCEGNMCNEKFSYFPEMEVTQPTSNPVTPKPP

- pKd (ActRIIA (Homo sapiens)): 8.10
Substance: BMP-7 (from UniProt P18075)

- pKd (ALK1-Fc (Homo sapiens)): 10.32
Substance: BMP-9 (from UniProt Q9UK05)

- pKd (TβRII (Homo sapiens) [1]): 9.70
Substance: TGF-β1 (from UniProt P01137)

- pKd (TβRII (Homo sapiens) [2]): < 8.00
Substance: TGF-β2 (from UniProt P61812)

- pKd (TβRII (Homo sapiens) [3]): 9.30
Substance: TGF-β3 (from UniProt P10600)

- pKd (ALK1-Fc (Homo sapiens)): 10.21
Substance: pro-BMP-9 (from UniProt Q9UK05)
